The Kd is the equilibrium constant for the complex coming apart.

One test has as its target T1, human CD98hc (human, UniProt P08195 109-529).
T1 construct: also called huCD98hc; CD98 heavy chain
T1 sequence: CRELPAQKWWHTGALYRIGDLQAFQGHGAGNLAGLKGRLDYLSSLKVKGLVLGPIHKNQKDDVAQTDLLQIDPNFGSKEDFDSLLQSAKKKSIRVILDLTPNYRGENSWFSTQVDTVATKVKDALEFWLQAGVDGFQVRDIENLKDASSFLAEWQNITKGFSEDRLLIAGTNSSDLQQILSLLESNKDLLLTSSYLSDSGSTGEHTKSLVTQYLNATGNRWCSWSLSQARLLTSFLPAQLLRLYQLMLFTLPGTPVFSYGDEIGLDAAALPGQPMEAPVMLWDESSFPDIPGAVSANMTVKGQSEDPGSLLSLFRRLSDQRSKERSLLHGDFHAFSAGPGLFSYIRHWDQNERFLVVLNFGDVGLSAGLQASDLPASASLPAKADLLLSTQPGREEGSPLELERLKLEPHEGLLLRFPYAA
Kind of test: SPR (Biacore). The method, boiled down:
(§1)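 Surface plasmon resonance on a Biacore instrument was used to measure the binding affinity (Kd) of engineered Fc polypeptides for CD98hc. Each clone was cloned, expressed and purified as an Fc-Fab fusion bearing anti-BACE1 Fabs. Testing used either a bivalent format or a monovalent knob/hole format in which only the knob chain carried the CD98hc-binding site.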
(SPR reads the build-up and loss of mass on a sensor chip optically.)

A further test has as its target T2, cyno CD98hc (cynomolgus monkey).
T2 construct: also called cynomolgus CD98hc; cyCD98hc
Description: SPR (Biacore). The method, boiled down:
as §1

B1: LLB2-10-13 (Fc fusion)
chain: APELLGGPSVFLFPPKPKDTLMISRTPEVTCVVVDVSHEDPEVKFNWYVDGVEVHNAKTKPREEQYNSTYRVVSVLTVLHQDWLNGKEYKCKVSNKALPAPIEKTISKAKGQPREPQVYTLPPSRDELTKNQVSLTCLVKGFYPSDIAVLWNSQFLLENNYKTTPPVLDSDGSFFLYSKLTVDKSRWQQGEIFACNVYHEALHNHYTFKNLQLSPGK
notes: Fc part only
B1: the Kd with human CD98hc came out at 260 nM; with cyno CD98hc, 1100 nM.

B2: LLB2-24 (Fc fusion)
chain: APELLGGPSVFLFPPKPKDTLMISRTPEVTCVVVDVSHEDPEVKFNWYVDGVEVHNAKTKPREEQYNSTYRVVSVLTVLHQDWLNGKEYKCKVSNKALPAPIEKTISKAKGQPREPQVYTLPPSRDELTKNQVSLTCLVKGFYPSDIEVLWNTRFVLETNAKTTPPVLDSDGSFFLYSKLTVDKSRWQQGEIFACNVLHEALHNHFTFKNLALSPGK
notes: Fc part only
For the molecule B2, the Kd with human CD98hc worked out at 1100 nM; in the test with cyno CD98hc, 6200 nM.

B3: LLB2-30 (Fc fusion)
chain: APELLGGPSVFLFPPKPKDTLMISRTPEVTCVVVDVSHEDPEVKFNWYVDGVEVHNAKTKPREEQYNSTYRVVSVLTVLHQDWLNGKEYKCKVSNKALPAPIEKTISKAKGQPREPQVYTLPPSRDELTKNQVSLTCLVKGFYPSDIAVLWNSQFLLENNYKTTPPVLDSDGSFFLYSKLTVDKSRWQQGNIFACNVYHEALHNHYTFKNLQLSPGK
notes: Fc part only
Take B3: the Kd in the test with human CD98hc came to 450 nM; in the test with cyno CD98hc, 2000 nM.

B4: LLB2-20 (Fc fusion)
chain: APELLGGPSVFLFPPKPKDTLMISRTPEVTCVVVDVSHEDPEVKFNWYVDGVEVHNAKTKPREEQYNSTYRVVSVLTVLHQDWLNGKEYKCKVSNKALPAPIEKTISKAKGQPREPQVYTLPPSRDELTKNQVSLTCLVKGFYPSDIVVLWNSRFVLEDNVKTTPPVLDSDGSFFLYSKLTVDKSRWQQGAIFACNVLHEALHNHHTFKNLVLSPGK
notes: Fc part only
Turning to B4, the dissociation constant Kd is 1200 nM with human CD98hc and 5500 nM with cyno CD98hc.

B5: LLB2-21 (Fc fusion)
chain: APELLGGPSVFLFPPKPKDTLMISRTPEVTCVVVDVSHEDPEVKFNWYVDGVEVHNAKTKPREEQYNSTYRVVSVLTVLHQDWLNGKEYKCKVSNKALPAPIEKTISKAKGQPREPQVYTLPPSRDELTKNQVSLTCLVKGFYPSDIDVLWNSRFLLETNTKTTPPVLDSDGSFFLYSKLTVDKSRWQQGEIFACNVLHEALHNHYTFKNLKLSPGK
notes: Fc part only
Regarding B5, the Kd with human CD98hc came out at 420 nM; with cyno CD98hc it was 2300 nM.

B6: LLB2.10.8.10.1.N (Fc fusion)
chain: APELLGGPSVFLFPPKPKDTLMISRTPEVTCVVVDVSHEDPEVKFNWYVDGVEVHNAKTKPREEQYNSTYRVVSVLTVLHQDWLNGKEYKCKVSNKALPAPIEKTISKAKGQPREPQVYTLPPSRDELTKNQVSLTCLVKGFYPSDIAVLWNSRFVLENNYKTTPPVLDSDGSFFLYSKLTVDKSRWQQGNIFACNVYHEALHNHYTFKNLKLSPGK
notes: Fc part only; changes read against LLB2-10-8
Turning to B6, the Kd with human CD98hc was 500 nM; with cyno CD98hc, 1800 nM.

B7: LLB2-11 (Fc fusion)
chain: APELLGGPSVFLFPPKPKDTLMISRTPEVTCVVVDVSHEDPEVKFNWYVDGVEVHNAKTKPREEQYNSTYRVVSVLTVLHQDWLNGKEYKCKVSNKALPAPIEKTISKAKGQPREPQVYTLPPSRDELTKNQVSLTCLVKGFYPSDIAVLWNSRFSLENNYKTTPPVLDSDGSFFLYSKLTVDKSRWQQGNIFACNVMHEALHNHYTFKNLSLSPGK
notes: Fc part only
Regarding B7, the figures for the Kd with human CD98hc and with cyno CD98hc were 1300 nM and 8200 nM, respectively.

B8: LLB2-18 (Fc fusion)
chain: APELLGGPSVFLFPPKPKDTLMISRTPEVTCVVVDVSHEDPEVKFNWYVDGVEVHNAKTKPREEQYNSTYRVVSVLTVLHQDWLNGKEYKCKVSNKALPAPIEKTISKAKGQPREPQVYTLPPSRDELTKNQVSLTCLVKGFYPSDIVVLWNSRFALEQNVKTTPPVLDSDGSFFLYSKLTVDKSRWQQGQIFACNVLHEALHNHLTFKNLVLSPGK
notes: Fc part only
For the molecule B8, the Kd came out at 1800 nM with human CD98hc and 9100 nM with cyno CD98hc.

B9: LLB2-23 (Fc fusion)
chain: APELLGGPSVFLFPPKPKDTLMISRTPEVTCVVVDVSHEDPEVKFNWYVDGVEVHNAKTKPREEQYNSTYRVVSVLTVLHQDWLNGKEYKCKVSNKALPAPIEKTISKAKGQPREPQVYTLPPSRDELTKNQVSLTCLVKGFYPSDIVVLWNSRFVLEQNVKTTPPVLDSDGSFFLYSKLTVDKSRWQQGEIFACNVLHEALHNHYTFKNLVLSPGK
notes: Fc part only
Regarding B9, the figures for the Kd with human CD98hc and with cyno CD98hc were 500 nM and 2600 nM, respectively.

B10: LLB2-37 (Fc fusion)
chain: APELLGGPSVFLFPPKPKDTLMISRTPEVTCVVVDVSHEDPEVKFNWYVDGVEVHNAKTKPREEQYNSTYRVVSVLTVLHQDWLNGKEYKCKVSNKALPAPIEKTISKAKGQPREPQVYTLPPSRDELTKNQVSLTCLVKGFYPSDIAVLWNSQFHLENNYKTTPPVLDSDGSFFLYSKLTVDKSRWQQGNIFACNVYHEALHNHYTFKNLLLSPGK
notes: Fc part only
On to B10, for which the Kd with human CD98hc came to 610 nM; with cyno CD98hc, 2800 nM.

B11: LLB2-13 (Fc fusion)
chain: APELLGGPSVFLFPPKPKDTLMISRTPEVTCVVVDVSHEDPEVKFNWYVDGVEVHNAKTKPREEQYNSTYRVVSVLTVLHQDWLNGKEYKCKVSNKALPAPIEKTISKAKGQPREPQVYTLPPSRDELTKNQVSLTCLVKGFYPSDIAVLWNSQFLLENNYKTTPPVLDSDGSFFLYSKLTVDKSRWQQGNIFACNVLHEALHNHYTFKNLSLSPGK
notes: Fc part only
Take B11: the results for the Kd in the test with human CD98hc and with cyno CD98hc were 850 nM and 3800 nM, respectively.

B12: LLB2-12 (Fc fusion)
chain: APELLGGPSVFLFPPKPKDTLMISRTPEVTCVVVDVSHEDPEVKFNWYVDGVEVHNAKTKPREEQYNSTYRVVSVLTVLHQDWLNGKEYKCKVSNKALPAPIEKTISKAKGQPREPQVYTLPPSRDELTKNQVSLTCLVKGFYPSDIAVLWNSRFSLENNYKTTPPVLDSDGSFFLYSKLTVDKSRWQQGNIFACNVLHEALHSHYTFKNLSLSPGK
notes: Fc part only
Consider B12, for which the Kd with human CD98hc worked out at 990 nM; with cyno CD98hc, 5000 nM.

B13: LLB2.10.8.10.8.N (Fc fusion)
chain: APELLGGPSVFLFPPKPKDTLMISRTPEVTCVVVDVSHEDPEVKFNWYVDGVEVHNAKTKPREEQYNSTYRVVSVLTVLHQDWLNGKEYKCKVSNKALPAPIEKTISKAKGQPREPQVYTLPPSRDELTKNQVSLTCLVKGFYPSDIAVLWNSRFVLENNYKTTPPVLDSDGSFFLYSKLTVDKSRWQQGNIFACNVYHEALHNHYTFKNLHLSPGK
notes: as for B6
As to B13, the Kd with human CD98hc worked out at 650 nM; with cyno CD98hc, 2200 nM.

B14: LLB2-31 (Fc fusion)
chain: APELLGGPSVFLFPPKPKDTLMISRTPEVTCVVVDVSHEDPEVKFNWYVDGVEVHNAKTKPREEQYNSTYRVVSVLTVLHQDWLNGKEYKCKVSNKALPAPIEKTISKAKGQPREPQVYTLPPSRDELTKNQVSLTCLVKGFYPSDIAVLWNSQFVLENNYKTTPPVLDSDGSFFLYSKLTVDKSRWQQGNIFACNVYHEALHNHYTFKNLALSPGK
notes: Fc part only
Take B14: the Kd with human CD98hc was 640 nM; with cyno CD98hc, 2100 nM.

B15: LLB2.10.8.9.11.N (Fc fusion)
chain: APELLGGPSVFLFPPKPKDTLMISRTPEVTCVVVDVSHEDPEVKFNWYVDGVEVHNAKTKPREEQYNSTYRVVSVLTVLHQDWLNGKEYKCKVSNKALPAPIEKTISKAKGQPREPQVYTLPPSRDELTKNQVSLTCLVKGFYPSDIAVLWNSRFVLENNYKTTPPVLDSDGSFFLYSKLTVDKSRWQQGNTFACNVYHEALHNHYTFKNLALSPGK
notes: Fc part only
On to B15, for which the Kd was 1200 nM with human CD98hc and 4500 nM with cyno CD98hc.

B16: LLB2.10.8.4.12.N (Fc fusion)
chain: APELLGGPSVFLFPPKPKDTLMISRTPEVTCVVVDVSHEDPEVKFNWYVDGVEVHNAKTKPREEQYNSTYRVVSVLTVLHQDWLNGKEYKCKVSNKALPAPIEKTISKAKGQPREPQVYTLPPSRDELTKNQVSLTCLVKGFYPSDIAVLWNSRFVLENNYKTTPPVLDSDGSFFLYSKLTVDKSRWQQGNIFACNVYHEALHNHWTFKNLRLSPGK
notes: as for B6
As to B16, the results for the Kd with human CD98hc and with cyno CD98hc were 140 nM and 700 nM, respectively.

B17: LLB2-17 (Fc fusion)
chain: APELLGGPSVFLFPPKPKDTLMISRTPEVTCVVVDVSHEDPEVKFNWYVDGVEVHNAKTKPREEQYNSTYRVVSVLTVLHQDWLNGKEYKCKVSNKALPAPIEKTISKAKGQPREPQVYTLPPSRDELTKNQVSLTCLVKGFYPSDISVLWNSRFALEDNTKTTPPVLDSDGSFFLYSKLTVDKSRWQQGEIFACNVLHEALHNHYTFKNLALSPGK
notes: Fc part only
As to B17, the Kd came out at 2000 nM with human CD98hc and 9200 nM in the test with cyno CD98hc.

B18: LLB2.10.8.10.3.N (Fc fusion)
chain: APELLGGPSVFLFPPKPKDTLMISRTPEVTCVVVDVSHEDPEVKFNWYVDGVEVHNAKTKPREEQYNSTYRVVSVLTVLHQDWLNGKEYKCKVSNKALPAPIEKTISKAKGQPREPQVYTLPPSRDELTKNQVSLTCLVKGFYPSDIAVLWNSRFVLENNYKTTPPVLDSDGSFFLYSKLTVDKSRWQQGNIFACNVYHEALHNHYTFKNLRLSPGK
notes: as for B6
In the case of B18, the Kd came out at 490 nM in the test with human CD98hc and 2000 nM with cyno CD98hc.

Source of the values: patent US20250145729A1 (DENALI THERAPEUTICS, published 2025).
